The values that follow are results of earlier work, collected in PMC12731121.

Usually Kd stands for the equilibrium constant for the complex coming apart. The term Ki denotes the equilibrium dissociation constant of an inhibitor or competing ligand from its target.

Data set [1] concerns the target D-dopachrome tautomerase (MIF-2) (Homo sapiens) (UniProt P30046).
A further data set deals with MIF (Homo sapiens) (UniProt P14174).
Data set [2] concerns the target Cathepsin H (Homo sapiens) (UniProt P09668).
In data set [3] the target is Cathepsin S (Homo sapiens) (UniProt P25774).
Data set [4] concerns the target Cathepsin L (Homo sapiens) (UniProt P07711).

Sequence of CD74 p41 thyropin domain (P04233 210-271): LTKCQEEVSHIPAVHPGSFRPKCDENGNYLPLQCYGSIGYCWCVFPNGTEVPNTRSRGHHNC
Sequence of CD74 (P04233 73-296): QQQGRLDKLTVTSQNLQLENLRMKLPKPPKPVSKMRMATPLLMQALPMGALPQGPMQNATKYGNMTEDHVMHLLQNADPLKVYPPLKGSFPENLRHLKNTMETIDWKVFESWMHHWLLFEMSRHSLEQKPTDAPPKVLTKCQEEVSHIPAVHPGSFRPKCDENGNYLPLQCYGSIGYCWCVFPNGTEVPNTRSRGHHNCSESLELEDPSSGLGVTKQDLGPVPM
Sequence of MIF (Homo sapiens) (P14174 2-115): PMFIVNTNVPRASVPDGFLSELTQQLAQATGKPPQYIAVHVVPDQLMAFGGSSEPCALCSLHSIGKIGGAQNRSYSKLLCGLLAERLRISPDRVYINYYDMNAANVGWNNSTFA
Sequence of D-dopachrome tautomerase (MIF-2) (Homo sapiens) (P30046 2-118): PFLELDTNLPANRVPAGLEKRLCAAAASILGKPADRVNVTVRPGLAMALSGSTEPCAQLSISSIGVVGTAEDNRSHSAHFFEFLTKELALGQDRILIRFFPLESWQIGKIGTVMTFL
Sequence of Cathepsin H (Homo sapiens) (P09668 whole entry, looked up): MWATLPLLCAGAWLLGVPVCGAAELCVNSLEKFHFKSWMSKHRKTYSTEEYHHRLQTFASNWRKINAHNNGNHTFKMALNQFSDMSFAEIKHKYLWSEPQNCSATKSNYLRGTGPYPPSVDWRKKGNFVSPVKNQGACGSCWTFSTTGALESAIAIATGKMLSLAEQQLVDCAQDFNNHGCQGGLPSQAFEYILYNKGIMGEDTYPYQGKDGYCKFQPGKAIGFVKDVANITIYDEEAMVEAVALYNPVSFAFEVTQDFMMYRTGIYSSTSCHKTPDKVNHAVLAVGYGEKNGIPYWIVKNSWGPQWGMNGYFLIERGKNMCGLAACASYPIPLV
Sequence of Cathepsin S (Homo sapiens) (P25774 115-331): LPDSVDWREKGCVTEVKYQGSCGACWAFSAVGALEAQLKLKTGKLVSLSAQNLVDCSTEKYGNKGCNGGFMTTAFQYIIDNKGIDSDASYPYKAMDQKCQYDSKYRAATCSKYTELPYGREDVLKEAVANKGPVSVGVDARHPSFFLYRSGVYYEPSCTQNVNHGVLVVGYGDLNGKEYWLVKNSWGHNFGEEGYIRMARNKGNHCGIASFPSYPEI
Sequence of Cathepsin L (Homo sapiens) (P07711 292-333): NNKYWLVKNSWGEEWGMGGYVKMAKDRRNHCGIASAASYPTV

On to CD74 (from UniProt P04233), for which the Kd was 5.4 nM in data set [1] and 1.4 nM with MIF (Homo sapiens).
Regarding “CD74 p41 thyropin domain (from UniProt P04233)”, the Ki is 5.3 nM in data set [2], 208 nM in data set [3] and 0.0017 nM in data set [4].
